According to IntAct's records for PubMed 21765415:

B1: Inhibitor of nuclear factor kappa-B kinase subunit alpha (Homo sapiens), O15111 (parent)
chain: MERPPGLRPGAGGPWEMRERLGTGGFGNVCLYQHRELDLKIAIKSCRLELSTKNRERWCHEIQIMKKLNHANVVKACDVPEELNILIHDVPLLAMEYCSGGDLRKLLNKPENCCGLKESQILSLLSDIGSGIRYLHENKIIHRDLKPENIVLQDVGGKIIHKIIDLGYAKDVDQGSLCTSFVGTLQYLAPELFENKPYTATVDYWSFGTMVFECIAGYRPFLHHLQPFTWHEKIKKKDPKCIFACEEMSGEVRFSSHLPQPNSLCSLVVEPMENWLQLMLNWDPQQRGGPVDLTLKQPRCFVLMDHILNLKIVHILNMTSAKIISFLLPPDESLHSLQSRIERETGINTGSQELLSETGISLDPRKPASQCVLDGVRGCDSYMVYLFDKSKTVYEGPFASRSLSDCVNYIVQDSKIQLPIIQLRKVWAEAVHYVSGLKEDYSRLFQGQRAAMLSLLRYNANLTKMKNTLISASQQLKAKLEFFHKSIQLDLERYSEQMTYGISSEKMLKAWKEMEEKAIHYAEVGVIGYLEDQIMSLHAEIMELQKSPYGRRQGDLMESLEQRAIDLYKQLKHRPSDHSYSDSTEMVKIIVHTVQSQDRVLKELFGHLSKLLGCKQKIIDLLPKVEVALSNIKEADNTVMFMQGKRQKEIWHLLKIACTQSSARSLVGSSLEGAVTPQTSAWLPPTSAEHDHSLSCVVTPQDGETSAQMIEENLNCLGHLSTIIHEANEEQGNSMMNLDWSWLTE

Variants of: B1
Conditions: with taxb1_human TAX1BP1, Q86VP1
Chain of taxb1_human TAX1BP1, Q86VP1 (Q86VP1 whole entry): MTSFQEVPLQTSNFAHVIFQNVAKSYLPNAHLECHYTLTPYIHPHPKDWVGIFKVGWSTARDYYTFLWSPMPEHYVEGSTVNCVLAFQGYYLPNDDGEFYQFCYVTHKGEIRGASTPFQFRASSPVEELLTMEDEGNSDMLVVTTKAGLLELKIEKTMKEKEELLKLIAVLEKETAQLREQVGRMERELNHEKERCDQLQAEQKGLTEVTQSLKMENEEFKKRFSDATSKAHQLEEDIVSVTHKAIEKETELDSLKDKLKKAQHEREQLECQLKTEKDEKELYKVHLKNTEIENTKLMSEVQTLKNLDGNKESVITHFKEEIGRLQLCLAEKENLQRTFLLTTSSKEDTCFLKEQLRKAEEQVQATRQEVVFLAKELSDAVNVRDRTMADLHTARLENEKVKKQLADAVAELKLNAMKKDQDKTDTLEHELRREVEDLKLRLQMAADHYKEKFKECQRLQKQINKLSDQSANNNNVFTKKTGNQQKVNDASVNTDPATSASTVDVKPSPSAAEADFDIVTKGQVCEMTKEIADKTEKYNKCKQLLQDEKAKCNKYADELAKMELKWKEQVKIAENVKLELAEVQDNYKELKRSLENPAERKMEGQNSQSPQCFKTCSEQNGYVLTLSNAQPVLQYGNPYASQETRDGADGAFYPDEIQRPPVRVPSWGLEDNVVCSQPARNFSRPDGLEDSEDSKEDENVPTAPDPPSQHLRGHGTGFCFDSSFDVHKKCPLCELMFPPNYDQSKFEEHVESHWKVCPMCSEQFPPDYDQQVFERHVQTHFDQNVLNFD

Variant | effect of a mutation on the interaction
K44M | disrupting interaction
